B1: EEHEE_rd3_0130 (parent)
chain: TKIIVNGKTFTAPTEEEAQKIAEKLAKKAGLTVHKKNGTFELK

Variants of: B1
Test: folding stability dG (cDNA display proteolysis); higher = more stable
Conditions: PBS, room temperature

Folding stability dG [kcal/mol]: each site, then its substitutions
Q19: T 0.379 | V 0.457 | F 0.959 | W 1.12 | E 0.914 | G 0.357 | M 0.872 | A 0.824 | N 0.383 | K 0.789 | Y 1.03 | P -0.468 | H 0.606 | I 0.665 | D -0.048 | S 0.739 | L 0.972 | C 1.25 | R 1.04
F10: I 0.454 | V -0.708 | W 0.82 | L 0.392 | M 0.05 | Y 0.851
T14: I -0.354 | Y -0.419 | M -0.226 | N 0.897 | R -0.419 | Q -0.297 | L -0.412 | D 0.286 | F -0.544 | W 0.054 | E -0.71 | S 0.86 | H -0.337 | G 0.32 | K -0.4 | P -0.49 | C 0.682 | V -0.396 | A -0.233
I3: L -0.098 | T -0.896 | S -0.742 | P -0.552 | R -0.394 | Q -0.664 | Y 0.08 | V 0.523 | M -0.368 | W -0.228
I4: T 0.449 | G -0.461 | M 0.561 | Y 0.689 | K 0.465 | S 0.124 | L 0.583 | R 0.615 | P -0.499 | A -0.213 | F 0.575 | W 0.365 | Q 0.068 | N -0.074 | H 0.173 | D -0.441 | E -0.066 | V 0.695
G7: K 0.029 | T -0.032 | A 0.007 | Y 0.159 | Q 0.025 | L -0.186 | V -0.592 | M -0.071 | I -0.201 | P -0.749 | D -0.326 | F 0.265 | E -0.721 | N 0.208 | C 0.961 | S -0.025 | R 0.021 | H 0.106 | W 0.187
E17: Y 0.614 | C 1.46 | G 0.263 | V 0.922 | S 0.635 | R 0.677 | N 0.064 | Q 0.916 | K 0.72 | F 0.623 | W 0.923 | L 1.25 | H 0.567 | I 1.33 | A 0.997 | D 0.564 | T 0.526 | P -0.793 | M 1.19
A18: G 0.375 | T -0.68 | Y -0.863 | E -0.74 | S -0.692 | V -0.585 | I -0.353 | D -0.679 | K -0.952 | L -0.286 | C 0.561 | R -0.569 | N -0.938 | W -0.4 | M -0.37 | Q -0.715 | F -0.368
K20: F 0.767 | N 0.548 | G 0.122 | L 0.783 | D 0.538 | A 0.82 | R 1.01 | I 0.836 | E 0.663 | V 0.724 | Y 0.745 | T 0.562 | H 0.597 | P -0.378 | W 0.804 | M 0.854 | Q 0.722 | S 0.688
T11: G -0.004 | Q 0.319 | K 0.248 | A 0.154 | Y 1.42 | I 1.03 | H 0.697 | W 1.68 | N 0.328 | R 0.493 | D -0.3 | S 0.624 | C 1.63 | M 0.947 | E 0.261 | L 0.81 | V 0.762 | F 1.38
T9: H 0.114 | Q 0.38 | S 0.461 | P -0.619 | N -0.378 | F 0.699 | C 1.66 | W 0.968 | M 0.652 | G -0.452 | A 0.394 | L 0.562 | Y 0.633 | E 0.17 | I 1.01 | R -0.066 | V 1.12 | K 0.007
E15: P 0.736 | M 0.994 | Q 0.576 | S 0.561 | T 0.439 | R 0.366 | L 0.994 | Y 1.42 | I 0.689 | A 0.725 | D 0.325 | K 0.359 | F 1 | V 0.847 | C 1.07 | H 0.545 | G 0.188 | N 0.31 | W 0.965
E16: Q 0.827 | A 0.911 | T 0.649 | F 0.765 | C 0.888 | S 0.797 | K 0.756 | Y 0.864 | H 0.749 | N 0.47 | W 0.933 | V 0.573 | D 0.611 | P 0.061 | L 0.722 | I 0.723 | M 0.821 | R 0.892 | G 0.554
A12: T 0.083 | Y 1.63 | R 0.461 | H 0.346 | D -0.138 | Q -0.091 | K -0.014 | N -0.407 | F 1.81 | M 1.02 | G 0.091 | E -0.465 | L 1.19 | S 0.182 | I 1.26 | V 1.34 | W 0.836
N6: Y 1.42 | H 0.793 | A 0.745 | S 0.36 | G 1.02 | K 0.266 | D 0.319 | Q 0.329 | T -0.318 | P -0.076 | I 0.222 | F 1.61 | V -0.097 | C 2.05 | R 0.555 | W 1.47 | M 0.863 | E 0.325 | L 0.861
V5: P -0.548 | Y 1.4 | Q -0.462 | M 0.826 | F 1.31 | T -0.197 | S -0.322 | R -0.49 | H 0.397 | C 1.63 | D -0.878 | I 1.13 | N -0.497 | G -0.75 | E -0.633 | A 0.171 | W 1.48 | L 0.73 | K -0.361
P13: L 0.492 | I 0.41 | M 0.526 | C 0.981 | T 0.634 | Y 0.302 | D 0.664 | V 0.451 | G 0.731 | Q 0.651 | R 0.954 | H 0.651 | N 0.67 | S 0.761 | A 0.804 | W 0.532 | F 0.391 | K 0.854 | E 0.598
I21: Y 0.645 | N -0.725 | F 1.01 | H -0.132 | R 0.152 | V 0.46 | K 0.005 | Q -0.043 | A -0.095 | T -0.08 | L 0.99 | S -0.174 | C 1.51 | W 1.3 | M 0.647 | D -0.719 | P -0.76 | E -0.19
A22: F 0.168 | E -0.91 | G -0.83 | H -0.772 | I 0.601 | C 0.374
K8: W 1.53 | M 0.926 | G -0.232 | I 0.962 | V 0.864 | Y 1.33 | N 0.238 | A 0.511 | F 1.25 | S 0.223 | T 0.475 | L 0.895 | H 0.948 | D -0.391 | E 0.053 | Q 0.67 | R 0.999
